Ends that are not written are not given here.

A word on the Kd: it is the constant that tells how readily two partners part at equilibrium. A higher Kd goes with weaker binding.

The assay addresses T1, RDM15 Tudor domain (residues 598-662), wild type (Arabidopsis thaliana).
T1 chain: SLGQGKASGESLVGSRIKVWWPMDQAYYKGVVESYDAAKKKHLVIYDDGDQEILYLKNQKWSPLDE
Briefly: ITC. A general note: Isothermal titration calorimetry measures the heat released or taken up as one component is titrated into another.

Molecule ARTK(Me)QTARKSTGGKA [H3(1-15) K4me1 peptide] yielded a Kd of 1470 nM.

Source of the values: article PMC8184781 (2021).
